The text below walks through data of publication PMC2033796, “Mechanisms of acquired resistance to the quinazoline thymidylate synthase inhibitor ZD1694 (Tomudex) in one mouse and three human cell lines” (British Journal of Cancer, 1995).

Substrate in the data set: Nc1nc2c(c(=O)[nH]1)N1CN(c3ccc(C(=O)N[C@@H](CCC(=O)O)C(=O)O)cc3)CC1CN2
Briefly: purified protein. The class given is biochemical, Homo sapiens. To be noted: co-substrate dUMP; mixed diastereoisomers (6R,S).

As usually defined, the Km is the substrate concentration at which the rate is half of its maximum.

B1: TS isolated from human ovarian CH1 cells (CH1 TS) (Homo sapiens) (protein)
chain: PVAGSELPRRPLPPAAQERDAEPRPPHGELQYLGQIQHILRCGVRKDDRTGTGTLSVFGMQARYSLRDEFPLLTTKRVFWKGVLEELLWFIKGSTNAKELSSKGVKIWDANGSRDFLDSLGFSTREEGDLGPVYGFQWRHFGAEYRDMESDYSGQGVDQLQRVIDTIKTNPDDRRIIMCAWNPRDLPLMALPPCHALCQFYVVNSELSCQLYQRSGDMGLGVPFNIASYALLTYMIAHITGLKPGDFIHTLGDAHIYLNHIEPLKIQLQREPRPFPKLRILRKVEKIDDFKAEDFQIEGYNPHPTIKMEMAV
notes: native enzyme partially purified from CH1 ovarian tumour cells (parental line), no tag
On to B1, for which the Km stood at 24 ± 0.8 µM.
